Data as given in patent publication US11802878B2, “Protein sequencing method and reagents” (The Governing Council of the University of Toronto, priority 2009, dated 2023).
“Also recorded” adds a separate entry of the source. Residues, ends and D or L forms follow the SMILES beside them.

Legend:
ClpS variant W1 = target: T1, ClpS variant W1 (Escherichia coli, UniProt P0A8Q6, L99A/M40A/M62C/P98A/V43C/V65A); assay: Competitive phage ELISA, non-biotinylated peptide competitors against immobilized Wpep; format: binding, E. coli; conditions: FIG. 13 legend; result in words
T1 construct: ST2 secretion signal (N, cleaved yes); made in house; host or cells: M13 phage display, amplified in E. coli XL1Blue with helper phage M13K07
Protocol: Error bars represent 95% confidence intervals (n=2).
Each phage pool was then briefly incubated in wells of a microtitre plate with Wpep ([sequence](biotin)) immobilized on neutravidin. Non-binding phage were washed away, and retained phage were detected using an enzymatically-labeled antibody against the filamentous phage particle and an appropriate colorimetric substrate. The value for W1 binding to neutravidin alone was subtracted from the binding signal from every well to correct for non-specific binding. The ELISA values were then expressed as proportions, relative to the maximum ELISA signal in absence of competitor. Error bars represent 95% confidence intervals (n=2).

[1] = tested on: immobilized biotinylated peptide, N-terminal amino acid L (X-SDGMFTAGSLIGK(biotin)); assay: Phage ELISA, binding to immobilized peptide, N-terminal L; conditions: N-terminal L; phage 1X; sub Fab
Protocol: (§1) Given the discovery that the specificity pocket library was functionally robust, selections against synthetic peptide ligands were carried out using this library. The specificity pocket library was selected against 20 biotinylated peptides, each with a different N-terminal residue atop a common leader sequence (X-SDGMFTAGSLIGK(biotin)) (SEQ ID NO: 4). The peptides were immobilized individually to the bottom wells of a microtiter plate. […] Consequently, ClpS mutant variants that prefer other residues in addition to the ligand ‘bait’ would bind those competing peptides in solution and simply be washed away. Only selective variants that bound to the immobilized target(s) were amplified during each subsequent round of selection.
(§2) To evaluate the specificity and selectivity of individual clones, both wild-type ClpS and the selected variants' binding to each of the biotinylated peptides independently were tested. The same approach was also used to monitor the progress of the selections and to prioritize particular pools of phage for further investigation.
(§3) Promising single clones were picked from the selection pools and their specificity was evaluated using the same panel of biotinylated peptides and various amounts of phage supernatant. […] Accordingly, Variant 1 represents a selective N-terminal amino acid capture probe for tryptophan useful for the sequencing methods described herein. Variant 1 also represents a useful scaffold for performing further generation and selection of variants with desirable properties for use as additional N-terminal amino acid capture probes.
(§4) The selection and ELISA protocols are very similar. Briefly, each well of a 96-well Maxisorp plate was coated overnight at 4° C. with 100 μl of 10 μg/ml neutravidin in PBS, or 1:500 dilution of anti-FLAG antibody. […]
(§5) For the ELISA readouts, 100 μl of pH adjusted phage supernatant or polyethylene glycol (PEG) precipitated concentrated phage was added to appropriate wells and allowed to bind for 1 hour at 4° C. […] The reaction was stopped by addition of 90 μl of 1M H3PO4 and the absorbance at A450 nm was read.

[2] = tested on: immobilized biotinylated peptide, N-terminal amino acid W (X-SDGMFTAGSLIGK(biotin)); assay: Phage ELISA, binding to immobilized peptide, N-terminal W; conditions: N-terminal W; phage 1X; sub Fab
Protocol: as §1, §2, §3, §4, §5

[3] = tested on: immobilized biotinylated peptide, N-terminal amino acid P (X-SDGMFTAGSLIGK(biotin)); assay: Phage ELISA, binding to immobilized peptide, N-terminal P; conditions: N-terminal P; phage 1X; sub Fab
Protocol: as §1, §2, §3, §4, §5

[4] = tested on: immobilized biotinylated peptide, N-terminal amino acid E (X-SDGMFTAGSLIGK(biotin)); assay: Phage ELISA, binding to immobilized peptide, N-terminal E; conditions: N-terminal E; phage 1X; sub Fab
Protocol: as §1, §2, §3, §4, §5

[5] = tested on: immobilized biotinylated peptide, N-terminal amino acid C (X-SDGMFTAGSLIGK(biotin)); assay: Phage ELISA, binding to immobilized peptide, N-terminal C; conditions: N-terminal C; phage 1X; sub Fab
Protocol: as §1, §2, §3, §4, §5

[6] = tested on: immobilized biotinylated peptide, N-terminal amino acid G (X-SDGMFTAGSLIGK(biotin)); assay: Phage ELISA, binding to immobilized peptide, N-terminal G; conditions: N-terminal G; phage 1X; sub Fab
Protocol: as §1, §2, §3, §4, §5

[7] = tested on: immobilized biotinylated peptide, N-terminal amino acid T (X-SDGMFTAGSLIGK(biotin)); assay: Phage ELISA, binding to immobilized peptide, N-terminal T; conditions: N-terminal T; phage 1X; sub Fab
Protocol: as §1, §2, §3, §4, §5

[8] = tested on: immobilized biotinylated peptide, N-terminal amino acid K (X-SDGMFTAGSLIGK(biotin)); assay: Phage ELISA, binding to immobilized peptide, N-terminal K; conditions: N-terminal K; phage 1X; sub Fab
Protocol: as §1, §2, §3, §4, §5

[9] = tested on: panel of 20 biotinylated peptides, each with a different N-terminal residue (X-SDGMFTAGSLIGK(biotin)); assay: Phage ELISA specificity profile over the panel of biotinylated peptides; format: binding; conditions: phage displayed; result in words; listed as ClpS Variant 1
Protocol: as §1
To evaluate the specificity and selectivity of individual clones, both wild-type ClpS and the selected variants' binding to each of the biotinylated peptides independently were tested. […]
Promising single clones were picked from the selection pools and their specificity was evaluated using the same panel of biotinylated peptides and various amounts of phage supernatant. […]
as §5

[10] = tested on: immobilized biotinylated peptide, N-terminal amino acid M (X-SDGMFTAGSLIGK(biotin)); assay: Phage ELISA, binding to immobilized peptide, N-terminal M; conditions: N-terminal M; phage 1X; sub Fab
Protocol: as §1, §2, §3, §4, §5

[11] = tested on: immobilized biotinylated peptide, N-terminal amino acid D (X-SDGMFTAGSLIGK(biotin)); assay: Phage ELISA, binding to immobilized peptide, N-terminal D; conditions: N-terminal D; phage 1X; sub Fab
Protocol: as §1, §2, §3, §4, §5

[12] = tested on: immobilized biotinylated peptide, N-terminal amino acid I (X-SDGMFTAGSLIGK(biotin)); assay: Phage ELISA, binding to immobilized peptide, N-terminal I; conditions: N-terminal I; phage 1X; sub Fab
Protocol: as §1, §2, §3, §4, §5

[13] = tested on: immobilized biotinylated peptide, N-terminal amino acid F (X-SDGMFTAGSLIGK(biotin)); assay: Phage ELISA, binding to immobilized peptide, N-terminal F; conditions: N-terminal F; phage 1X; sub Fab
Protocol: as §1, §2, §3, §4, §5

[14] = tested on: immobilized biotinylated peptide, N-terminal amino acid R (X-SDGMFTAGSLIGK(biotin)); assay: Phage ELISA, binding to immobilized peptide, N-terminal R; conditions: N-terminal R; phage 1X; sub Fab
Protocol: as §1, §2, §3, §4, §5

[15] = tested on: immobilized biotinylated peptide, N-terminal amino acid H (X-SDGMFTAGSLIGK(biotin)); assay: Phage ELISA, binding to immobilized peptide, N-terminal H; conditions: N-terminal H; phage 1X; sub Fab
Protocol: as §1, §2, §3, §4, §5

[16] = tested on: immobilized biotinylated peptide, N-terminal amino acid V (X-SDGMFTAGSLIGK(biotin)); assay: Phage ELISA, binding to immobilized peptide, N-terminal V; conditions: N-terminal V; phage 1X; sub Fab
Protocol: as §1, §2, §3, §4, §5

[17] = tested on: immobilized biotinylated peptide, N-terminal amino acid S (X-SDGMFTAGSLIGK(biotin)); assay: Phage ELISA, binding to immobilized peptide, N-terminal S; conditions: N-terminal S; phage 1X; sub Fab
Protocol: as §1, §2, §3, §4, §5

[18] = tested on: immobilized biotinylated peptide, N-terminal amino acid A (X-SDGMFTAGSLIGK(biotin)); assay: Phage ELISA, binding to immobilized peptide, N-terminal A; conditions: N-terminal A; phage 1X; sub Fab
Protocol: as §1, §2, §3, §4, §5

[19] = tested on: immobilized biotinylated peptide, N-terminal amino acid Y (X-SDGMFTAGSLIGK(biotin)); assay: Phage ELISA, binding to immobilized peptide, N-terminal Y; conditions: N-terminal Y; phage 1X; sub Fab
Protocol: as §1, §2, §3, §4, §5

[20] = tested on: immobilized biotinylated peptide, N-terminal amino acid Q (X-SDGMFTAGSLIGK(biotin)); assay: Phage ELISA, binding to immobilized peptide, N-terminal Q; conditions: N-terminal Q; phage 1X; sub Fab
Protocol: as §1, §2, §3, §4, §5

[21] = tested on: immobilized biotinylated peptide, N-terminal amino acid N (X-SDGMFTAGSLIGK(biotin)); assay: Phage ELISA, binding to immobilized peptide, N-terminal N; conditions: N-terminal N; phage 1X; sub Fab
Protocol: as §1, §2, §3, §4, §5

CC[C@H](C)[C@H](NC(=O)[C@H](CC(C)C)NC(=O)[C@H](CO)NC(=O)CNC(=O)[C@H](C)NC(=O)[C@@H](NC(=O)[C@H](Cc1ccccc1)NC(=O)[C@H](CCSC)NC(=O)CNC(=O)[C@H](CC(=O)O)NC(=O)[C@H](CO)NC(=O)[C@@H](N)Cc1c[nH]c2ccccc12)[C@@H](C)O)C(=O)O [Wpep] (H-WSDGMFTAGSLI-OH; N-terminus and C-terminus assumed)
effective competitor for binding ClpS Variant 1 (ClpS variant W1): effective competitor

B1: Variant 1: engineered ClpS variant, SEQ ID NO: 2, binds N-terminal tryptophan selectively (protein)
chain: KPPSMYKVILVNDDYTPAEFCIDVLQKFFSYDVERATQLCLAAHYQGKAICGVFTAEVAETKVAMVNKYARENEHAALCTLEKA
phage ELISA binding signal [1]: 0.069 | phage ELISA binding signal [2]: 2.636 | phage ELISA binding signal [3]: 0.062 | phage ELISA binding signal [4]: 0.032 | phage ELISA binding signal [5]: 0.066 | phage ELISA binding signal [6]: 0.028 | phage ELISA binding signal [7]: −0.005 | phage ELISA binding signal [8]: 0.129 | binding specificity / preference for N-terminal amino acids [9]: selectively binds polypeptides with the N-terminal amino acid tryptophan; also recorded: bound specifically to tryptophan alone; also recorded: selectively binds tryptophan N-terminal amino acids | phage ELISA binding signal [10]: −0.003 | phage ELISA binding signal [11]: −0.017 | phage ELISA binding signal [12]: −0.023 | phage ELISA binding signal [13]: 0.083 | phage ELISA binding signal [14]: 0.04 | phage ELISA binding signal [15]: −0.001 | phage ELISA binding signal [16]: 0.032 | phage ELISA binding signal [17]: −0.001 | phage ELISA binding signal [18]: 0.018 | phage ELISA binding signal [19]: 0.045 | phage ELISA binding signal [20]: 0.065 | phage ELISA binding signal [21]: 0.052
